In the supplement of paper PMC10567573:
± gives the standard deviation.

Assay: protein stability index of a GFP-peptide fusion (GPS, HEK-293T) (PSI 1-6); higher = more stable
[1] = treatment: DMSO, c terminus: a fixed tail appended
[2] = treatment: MLN4924 1 uM, 8 h, c terminus: a fixed tail appended
[3] = treatment: DMSO, c terminus: native
[4] = treatment: MLN4924 1 uM, 8 h, c terminus: native
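Further: 24-mer peptide tiles fused after GFP, lentivirally expressed, FACS-sorted into six equal bins by GFP/DsRed ratio, decoded by Illumina sequencing, PSI is the read-weighted mean bin number.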

Row | Sequence | protein stability index [1] | protein stability index [2] | protein stability index [3] | protein stability index [4]
1 | YPPPPPALPSSAPSGPPPPPPSVL [WASL] | 4.54 ± 0.2 | 4.5 ± 0.16 |  | 
2 | IMAFFLCLGLALGAVFSFLFRAIV [SLC29A1] | 1.94 ± 0.14 | 2.19 ± 0.21 |  | 
3 | IYAHRVILSACSPYFRAMFTGELA [KLHL20] | 3.16 ± 0.56 | 2.9 ± 0.65 |  | 
4 | APSLSGKGNPEEEDVDTSQVLYEW [CTNNB1] | 5.14 ± 0.28 | 5.15 ± 0.18 |  | 
5 | HQQVEEALSFTLLGSAPLDQEPLL [NEK8] | 3.69 ± 0.25 | 3.75 ± 0.12 |  | 
6 | LEIVGREGVSLTAVLTTHHHWDHA [HAGHL] | 2.59 ± 0.34 | 2.32 ± 0.44 |  | 
7 | IICYSITDRRSFHEVREFKQLIYR [RIT1] | 2.41 ± 0.25 | 2.53 ± 0.46 |  | 
8 | WDKEPWFWHDTLTEQLWRIFAGVH [TLE6] | 2.61 ± 0.82 | 2.22 ± 0.57 |  | 
9 | GFKRDYYLIRVDGKGSIKELFPTG [VPS39] | 2.06 ± 0.29 | 2.25 ± 0.36 |  | 
10 | EKSHQVLAQLLDTLLAIGTKLPEN [INTS4] | 3.14 ± 0.82 | 3.2 ± 0.86 |  | 
11 | TFAMVKGYFFPTSARDCKFTGNFF [DHCR7] | 2.56 ± 0.39 | 2.71 ± 0.43 |  | 
12 | RRFGAVACGVAMELYVFGGVRSRE [GAN] | 3.04 ± 0.79 | 2.26 ± 0.15 |  | 
13 | GGEYQEPGGNVKGVWAPPAPGFGE [BEX5] | 4.05 ± 0.53 | 4.38 ± 0.31 |  | 
14 | FIYDMCGSNYANFELDLGKKVLNL [PTPN9] | 3.01 ± 1.1 | 2.22 ± 1.5 |  | 
15 | DKLKIDLLPDGRHAVVEVEDVPLA [TAF7L] | 4.61 ± 0.15 | 4.8 ± 0.24 |  | 
16 | LSSAVWPGGETEALTRLERHLERK [CRY1] | 4.44 ± 0.22 | 4.27 ± 0.061 |  | 
17 | NQAAIMELDDTLKYSFLQFDPAPR [PPP2CA] | 3.25 ± 0.17 | 3.38 ± 0.21 |  | 
18 | LLNAASTVARPVFTEYQASAFGNV [RHOBTB3] | 2.48 ± 0.21 | 2.72 ± 0.31 |  | 
19 | KLQYQLRNVRERIAKNLVEKGILT [GOLPH3L] | 2.17 ± 0.16 | 2.28 ± 0.19 |  | 
20 | RQRLQDISSLPLPQSLKNYLQYQ [SPSB4] |  |  | 3.65 ± 0.074 | 3.65 ± 0.31
21 | WIQFNHPYTEKPRLWHTACASDEG [KLHDC2] | 2.28 ± 0.31 | 2.4 ± 0.13 |  | 
22 | PEKLIWGDQDPLSKIPFKILSGHE [WDR88] | 3.43 ± 0.85 | 3.45 ± 0.44 |  | 
23 | MATSELSCEVSEENCERREAFWAE [TCAP] | 5.07 ± 0.079 | 5.08 ± 0.32 |  | 

Row | Sequence | protein stability index [1] | protein stability index [2] | protein stability index [3] | protein stability index [4]
24 | KEGDCAPEEKIWEELSVLEVFEGR [MAGEA6] | 4.96 ± 0.16 | 4.87 ± 0.47 |  | 
25 | RRLLVKDPKRRMTIAQSLEHSWIK [DAPK3] | 2.67 ± 0.25 | 2.82 ± 0.4 |  | 
26 | PLLLSHTLQELLARDTVQVELIPE [SNX8] | 2.71 ± 0.23 | 2.73 ± 0.31 |  | 
27 | YLIMIFLGLYINFRHLYKQRRRRY [HACD3] | 2.55 ± 0.86 | 2.53 ± 0.63 |  | 
28 | DLDLIQSTPFKPLALKTPPRVLTL [MFF] | 2.31 ± 0.3 | 2.36 ± 0.34 |  | 
29 | AKAPPTACYAGAAPAPSQVKSKAK [CEBPB] | 5.36 ± 0.19 | 5.21 ± 0.2 |  | 
30 | KAFSRSSGLFNHRGIHNIQKRYHC [ZSCAN9] | 2.63 ± 0.39 | 2.45 ± 0.14 |  | 
31 | MDAAPGVDLSRILNEMRDQYEKMA [KRT17] | 3.82 ± 0.18 | 3.8 ± 0.17 |  | 
32 | DLVFVIDGSKSLGEENFEVVKQFV [MATN2] | 2.38 ± 0.35 | 2.44 ± 0.49 |  | 
33 | WLPLATLIDEKVLILHGGVSDITD [PPEF2] | 2.22 ± 0.64 | 2.4 ± 0.58 |  | 
34 | RGDPAHAGLAELGHRLAQKLQGLE [PBXIP1] | 3.04 ± 0.34 | 3.29 ± 0.32 |  | 
35 | RRQAVAWLVAMHKAAKLLYESRDQ [ZFYVE21] | 2.29 ± 0.54 | 2.36 ± 0.49 |  | 
36 | RWFRSVDWEAVPQRKLKPPIVPKI [PRKX] | 2.33 ± 0.26 | 2.44 ± 0.29 |  | 
37 | SNKVQDSAPVETPRGKPPLNTRSQ [HMOX1] | 5.21 ± 0.38 | 5.26 ± 0.27 |  | 
38 | PNCLSMGSRCLKTFEVPEENTAET [ZBED1] | 4.89 ± 0.39 | 4.93 ± 0.15 |  | 
39 | DLKQALPCVAESPTVHVEVHQRGS [TRIP13] | 4.51 ± 0.31 | 4.57 ± 0.11 |  | 
40 | ITEKIDVAFVDRADIKQYIGPPSA [TRIP13] | 3.6 ± 0.15 | 3.54 ± 0.58 |  | 
41 | VGKGEILESLQDGAAESPYAYSNG [RAB40C] | 4.88 ± 0.24 | 4.79 ± 0.2 |  | 
42 | RGSVARPTQGPETPRSPEGTTEAA [PXN] | 5.39 ± 0.3 | 5.31 ± 0.17 |  | 
43 | AVPTDEARAFAEKNNLSFIETSAL [RAB11B] | 3.31 ± 0.31 | 3.47 ± 0.54 |  | 
44 | LEGKTFYSKKDRPLCKSHAFSHV [PDLIM7] |  |  | 3.36 ± 0.44 | 3.83 ± 0.75
45 | RADAHLGSSSVALPKEASDGTGAS [TOR1AIP2] | 5.5 ± 0.24 | 5.33 ± 0.12 |  | 
46 | AMEAVRVNPLHVDSTWLLLRRIRA [SLC25A39] | 2.66 ± 0.41 | 2.81 ± 0.19 |  | 

Row | Sequence | protein stability index [1] | protein stability index [2] | protein stability index [3] | protein stability index [4]
47 | PQKRKPQEQLLECNKLCGRGQSRQ [SLC2A12] | 4.1 ± 0.37 | 4.4 ± 0.056 |  | 
48 | SDLLSEFKKHDADKVGLITLSDWA [PPEF2] | 3.35 ± 0.47 | 3.44 ± 0.27 |  | 
49 | TPGIDLTRVLAEMREQYEAMAERN [KRT13] | 4.13 ± 0.49 | 4.4 ± 0.32 |  | 
50 | LSTLLAPYQALRLWARGTWTQATG [SOAT2] | 2.4 ± 0.55 | 2.08 ± 0.55 |  | 
51 | NVVTIGLAFFPFLHRLFREKSLDQ [PHTF1] | 2.24 ± 0.32 | 2.3 ± 0.47 |  | 
52 | SFIIYLKNIVIADFVMSLTFPFKI [P2RY14] | 3.16 ± 0.29 | 3.22 ± 0.4 |  | 
53 | EVREARDHKEPKEEINKNISDFGR [EHMT1] | 5.18 ± 0.26 | 5.28 ± 0.17 |  | 
54 | AAKPAASITSKPATLTTTSATSKL [ZNF207] | 4.6 ± 0.12 | 4.6 ± 0.17 |  | 
55 | GQLTGGYKPNPQIYVKLIEECTDL [OAS1] | 2.99 ± 0.21 | 3.06 ± 0.093 |  | 
56 | ECHIVVLTDDDVVDWDEEYPPQMG [BTBD10] | 3.34 ± 0.29 | 3.73 ± 0.42 |  | 
57 | RKRKKATEAIDSLRKSKRLRNRK [FBXO28] |  |  | 4.97 ± 0.1 | 5.19 ± 0.12
58 | KRYESHPVCADLQAKILQCYRENT [CHCHD3] | 3.18 ± 0.23 | 3.55 ± 0.26 |  | 
59 | FRALAPMYYRGSAAAIIVYDITKE [RAB22A] | 2.27 ± 0.36 | 2.16 ± 0.54 |  | 
60 | NGFGLVEDSAQNCFALIPKAPKKD [EFHC1] | 4.75 ± 0.34 | 4.74 ± 0.13 |  | 
61 | IWLDNLHCTGNEATLAACTSNGWG [LOXL2] | 2.18 ± 0.31 | 2.27 ± 0.3 |  | 
62 | QQCMLEILDTAGTEQFTAMRDLYM [RAP1B] | 2.53 ± 0.25 | 2.6 ± 0.2 |  | 
63 | SWGIAGETELALVKESGERKVTDS [DLC1] | 5.14 ± 0.3 | 5.46 ± 0.19 |  | 
64 | PRPVQLDETHPYTVTSVSCCHGNT [NEK8] | 3.94 ± 0.23 | 4.02 ± 0.14 |  | 
65 | ALEFWRQEELTRINQSFTGAERKA [IQUB] | 3.87 ± 0.52 | 3.73 ± 0.43 |  | 
66 | TVNALEIELQAQHSMRNSLESTLA [KRT36] | 3.38 ± 0.31 | 3.38 ± 0.29 |  | 
67 | MYSEIQRERADIGGLMARPEYREW [FAM107A] | 2.93 ± 0.26 | 2.92 ± 0.42 |  | 
68 | CDYCDRSFQDNLHNRKKHLNGLQH [ZMAT5] | 3.09 ± 0.71 | 3.11 ± 0.38 |  | 
69 | LALVTLLSFATRFHRLDEPPHICW [POMT2] | 3.25 ± 0.61 | 3.19 ± 0.22 |  | 

Row | Sequence | protein stability index [1] | protein stability index [2] | protein stability index [3] | protein stability index [4]
70 | LPGPKGDDGKLGATGPMGMRGFKG [SCARA5] | 4.7 ± 0.46 | 4.48 ± 0.2 |  | 
71 | SAVVQLYAADRNCMWSKKCSGVAC [WASL] | 2.36 ± 0.23 | 2.41 ± 0.42 |  | 
72 | PGNQAEHGAVTVGGTSVGSLGVPG [ZBTB22] | 4.89 ± 0.25 | 4.75 ± 0.26 |  | 
73 | RYRGLPAPGPSPADKKRSGKKKIS [WAS] | 4.76 ± 0.3 | 4.71 ± 0.21 |  | 
74 | RRCRRCVCALCPVLGAHRGHPVGL [TRIM14] | 2.54 ± 0.33 | 2.59 ± 0.38 |  | 
75 | EDSESLRIKEVEHMTRHLEESEKA [LRRC45] | 5.5 ± 0.23 | 5.51 ± 0.2 |  | 
76 | TSIVQAAAGGVPGGGSNNGKTPVC [PDLIM7] | 4.63 ± 0.17 | 4.81 ± 0.14 |  | 
77 | PGKETLESALIALDSEKPKKLRFH [EHMT1] | 4.06 ± 0.24 | 4.11 ± 0.45 |  | 
78 | IGGFTALHYAAMHGRARIARLMLE [ASB7] | 2.15 ± 0.23 | 2.31 ± 0.22 |  | 
79 | SASRKSAEQLRIELNAEKFKNSLL [WEE1] | 3.2 ± 0.3 | 3.29 ± 0.38 |  | 
80 | FQEPDSPLPPARSPTEPGPERRRS [WEE1] | 5.32 ± 0.35 | 5.31 ± 0.06 |  | 
81 | LSEYVSRMKETQKSIYYITGESKE [HSP90AB1] | 3.69 ± 0.24 | 3.67 ± 0.2 |  | 
82 | SALPFITYLENKGHRYPCFFNTLH [POP5] | 2.34 ± 0.46 | 2.19 ± 0.42 |  | 
83 | DRLEEQLPWLSLRALKFRERDALE [DNAAF3] | 3.4 ± 0.24 | 3.42 ± 0.19 |  | 
84 | EEDLQSQSETQGLEGAQAPLAVEE [MAGEA10] | 5.73 ± 0.14 | 5.75 ± 0.089 |  | 
85 | VRILLEHYYKENDPSVRLKIASLL [INTS4] | 2.09 ± 0.33 | 2.41 ± 0.4 |  | 
86 | NYVAKNFAQALGCVLYACFILGRL [SOAT2] | 3.46 ± 0.38 | 2.85 ± 0.38 |  | 
87 | PVPPSEGKSRLSPAGEMKPMPLSE [BCL2L13] | 5.13 ± 0.22 | 5.08 ± 0.073 |  | 
88 | HNCAHFCINIPGSYVCRCKQGYIL [MATN2] | 2.48 ± 0.2 | 2.71 ± 0.27 |  | 
89 | MGKLLQQPNTYADFEFLAFWQTQY [PKD2L1] | 2.21 ± 0.56 | 2.27 ± 0.23 |  | 
